The chains are these.
B1: BIIB-9-479 (antibody, V domains shown)
VH: QVQLQESGPGLVKPSETLSLTCTVSGGSISSYYWSWIRQPPGKGLEWIGSIYYSGSTNYNPSLKSRVTISVDTSKNQFSLKLSSVTAADTAVYYCAREHYGDYPLFDIWGQGTMVTVSS
VL: DIQMTQSPSTLSASVGDRVTITCRASQSISSWLAWYQQKPGKAPKLLIYKASSLESGVPSRFSGSGSGTEFTLTISSLQPDDFATYYCQQYRILSPTFGGGTKVEIK
notes: IgG
B2: BIIB-9-558 (antibody, V domains shown)
VH: EVQLVESGGGLVKPGGSLRLSCAASGFTFSSYSMNWVRQAPGKGLEWVSSISSSSSYIYYADSVKGRFTISRDNAKNSLYLQMNSLRAEDTAVYYCARSYGYGYHDFDLWGRGTLVTVSS
VL: B1 VL with S30G, Y91A, R92G, I93S, L94Y, P96F
notes: IgG
B3: BIIB-9-465 (antibody, V domains shown)
VH: QVQLVQSGAEVKKPGASVKVSCKASGYTFTSYYMVWVRQAPGQGLEWMGIINPSGGSTSYAQKFQGRVTMTRDTSTSTVYMELSSLRSEDTAVYYCARSPTDGYYFDLWGRGTLVTVSS
VL: B1 VL with S30N, Y49S, K50D, R92E, L94F, S95P, P96F
notes: IgG
B4: BIIB-9-590 (antibody, V domains shown)
VH: QVQLVQSGAEVKKPGASVKVSCKASGYTFTSYYMHWVRQAPGQGLEWMGIINPSGGSTSYAQKFQGRVTMTRDTSTSTVYMELSSLRSEDTAVYYCARDQEWAYYGMDVWGQGTTVTVSS
VL: EIVLTQSPATLSLSPGERATLSCRASQSVSSYLAWYQQKPGQAPRLLIYDASNRATGIPARFSGSGSGTDFTLTISSLEPEDFAVYYCQQVDNFPLTFGGGTKVEIK
notes: IgG
B5: BIIB-9-616 (antibody, V domains shown)
VH: QVQLVQSGAEVKKPGASVKVSCKASGYTFTSYYMHWVRQAPGQGLEWMGIINPSGGSTSYAQKFQGRVTMTRDTSTSTVYMELSSLRSEDTAVYYCARGGSKYFFDLWGRGTLVTVSS
VL: B4 VL with L4M, L13V, Y32S, D50G, N53T, D70E, E79Q, P80S, V91A, L96F
notes: IgG
B6: BIIB-9-460 (antibody, V domains shown)
VH: QVQLVQSGAEVKKPGASVKVSCKASGYTFTSYYMHWVRQAPGQGLEWMGIINPSGGSTSYAQKFQGRVTMTRDTSTSTVYMELSSLRSEDTAVYYCARDISTDGESSLYYYMDVWGKGTTVTVSS
VL: B4 VL with L4M, L13V, Y32N, D50G, N53T, D70E, E79Q, P80S, V91H, L96F
notes: IgG
B7: BIIB-9-582 (antibody, V domains shown)
VH: QVQLVQSGAEVKKPGASVKVSCKASGYTFTSYYMVWVRQAPGQGLEWMGIINPSGGSTSYAQKFQGRVTMTRDTSTSTVYMELSSLRSEDTAVYYCARAPTYFYSYGMDVWGQGTTVTVSS
VL: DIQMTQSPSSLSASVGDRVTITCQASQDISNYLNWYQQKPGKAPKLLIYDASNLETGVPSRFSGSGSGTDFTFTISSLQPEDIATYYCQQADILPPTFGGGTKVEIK
notes: IgG
B8: BIIB-9-585 (antibody, V domains shown)
VH: QLQLQESGPGLVKPSETLSLTCTVSGGSISSSDYYWGWIRQPPGKGLEWIGSIYYSGSTYYNPSLKSRVTISVDTSKNQFSLKLSSVTAADTAVYYCAREVGTYYYGLDFWFDPWGQGTLVTVSS
VL: DIQMTQSPSSVSASVGDRVTITCRASQGISSWLAWYQQKPGKAPKLLIYAASSLQSGVPSRFSGSGSGTDFTLTISSLQPEDFATYYCQQANSYPITFGGGTKVEIK
notes: IgG
B9: BIIB-9-605 (antibody, V domains shown)
VH: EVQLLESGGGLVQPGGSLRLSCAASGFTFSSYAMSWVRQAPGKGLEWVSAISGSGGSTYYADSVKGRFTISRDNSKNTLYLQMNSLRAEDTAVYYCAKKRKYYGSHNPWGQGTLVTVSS
VL: B8 VL with N92D, S93V, Y94F, I96F
notes: IgG
B10: BIIB-9-415 (antibody, V domains shown)
VH: B4 VH with Q100G, E101L, W102S, A103S, Y104G, G106Y, M107W, V109N, T115L
VL: B8 VL with S30D, A91G, N92D, S93A, Y94F, I96F
notes: IgG
B11: BIIB-9-414 (antibody, V domains shown)
VH: QVQLVQSGAEVKKPGASVKVSCKASGYTFTSYYMHWVRQAPGQGLEWMGIINPSGGSTSYAQKFQGRVTMTRDTSTSTVYMELSSLRSEDTAVYYCARDPYSYGMYYFDYWGQGTLVTVSS
VL: B8 VL with A91G, N92D, S93V, Y94F, I96F
notes: IgG
B12: BIIB-9-587 (antibody, V domains shown)
VH: B4 VH with D99G, Q100P, E101P, W102G, A103Y, Y104E, G106Y, Q112K
VL: B8 VL with N92D, Y94F, I96F
notes: IgG
B13: BIIB-9-480 (antibody, V domains shown)
VH: QVQLQESGPGLVKPSETLSLTCAVSGYSISSGYYWGWIRQPPGKGLEWIGSSYHSGSTYYNPSLKSRVTISVDTSKNQFSLKLSSVTAADTAVYYCARDQQDYGAFDIWGQGTMVTVSS
VL: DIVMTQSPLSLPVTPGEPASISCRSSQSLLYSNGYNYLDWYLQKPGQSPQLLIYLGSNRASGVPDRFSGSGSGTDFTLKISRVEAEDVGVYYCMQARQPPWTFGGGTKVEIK
notes: IgG
B14: BIIB-9-425 (antibody, V domains shown)
VH: QVQLVQSGAEVKKPGASVKVSCKASGYTFTSYYMHWVRQAPGQGLEWMGIINPSGGSTSYAQKFQGRVTMTRDTSTSTVYMELSSLRSEDTAVYYCAREPTWDVAYDYWGQGTLVTVS
VL: EIVLTQSPGTLSLSPGERATLSCRASQSVSSDYLAWYQQKPGQAPRLLIYGASSRATGIPDRFSGSGSGTDFTLTISRLEPEDFAVYYCQQYDSHPYTFGGGTKVEIK
notes: IgG
B15: BIIB-9-440 (antibody, V domains shown)
VH: QLQLQESGPGLVKPSETLSLTCTVSGGSISSSDYYWGWIRQPPGKGLEWIGSIYYSGSTYYNPSLKSRVTISVDTSKNQFSLKLSSVTAADTAVYYCARSPRHKVRGPNWFDPWGQGTLVTVSS
VL: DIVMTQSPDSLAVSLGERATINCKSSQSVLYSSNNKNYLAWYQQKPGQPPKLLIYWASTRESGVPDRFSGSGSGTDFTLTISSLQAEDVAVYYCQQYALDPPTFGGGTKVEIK
notes: IgG
B16: BIIB-9-608 (antibody, V domains shown)
VH: QLQLQESGPGLVKPSETLSLTCTVSGGSISSSSYYWGWIRQPPGKGLEWIGSIYYSGSTYYNPSLKSRVTISVDTSKNQFSLKLSSVTAADTAVYYCARDRLETSEAGMDVWGQGTTVTVSS
VL: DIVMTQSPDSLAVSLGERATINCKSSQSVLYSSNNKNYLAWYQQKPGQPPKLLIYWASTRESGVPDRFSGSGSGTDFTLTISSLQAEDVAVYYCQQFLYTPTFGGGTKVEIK
notes: IgG
B17: BIIB-9-475 (antibody, V domains shown)
VH: QVQLQESGPGLVKPSETLSLTCTVSGGSISSYYWSWIRQPPGKGLEWIGSIYYSGSTNYNPSLKSRVTISVDTSKNQFSLKLSSVTAADTAVYYCARDVGGYDYGVGAFDIWGQGTMVTVSS
VL: DIQMTQSPSSLSASVGDRVTITCQASQDITNYLNWYQQKPGKAPKLLIYDASNLETGVPSRFSGSGSGTDFTFTISSLQPEDIATYYCQQSSNFPLTFGGGTKVEIK
notes: IgG
B18: BIIB-9-566 (antibody, V domains shown)
VH: QVQLVQSGAEVKKPGASVKVSCKASGYTFTSYYMVWVRQAPGQGLEWMGIINPSGGSTSYAQKFQGRVTMTRDTSTSTVYMELSSLRSEDTAVYYCARVPTYRYSYLAFDIWGQGTMVTVSS
VL: EIVMTQSPATLSVSPGERATLSCRASQSVSSSLAWYQQKPGQAPRLLIYGASTRATGIPARFSGSGSGTEFTLTISSLQSEDFAVYYCQQHDNWPPTFGGGTKVEIK
notes: IgG
B19: BIIB-9-477 (antibody, V domains shown)
VH: EVQLLESGGGLVQPGGSLRLSCAASGFTFSNYAMSWVRQAPGKGLEWVSAISGSGGSTYYADSVKGRFTISRDNSKNTLYLQMNSLRAEDTAVYYCARGGVYSSSWMRFWGQGTLVTVSS
VL: B18 VL with Y49F, H91D, D92V, P96I
notes: IgG
B20: BIIB-9-452 (antibody, V domains shown)
VH: B3 VH with V35H, S99D, P100G, T101R, D102L, G103S, Y105T, F106W, L108R, R111Q
VL: B18 VL with S32N, H91A, D92N, W94F, P96F
notes: IgG
B21: BIIB-9-461 (antibody, V domains shown)
VH: QVQLVQSGAEVKKPGASVKVSCKASGYTFTSYYMHWVRQAPGQGLEWMGIINPSGGSTSYAQKFQGRVTMTRDTSTSTVYMELSSLRSEDTAVYYCARGPTDSSGYLDMDVWGKGTTVTVSS
VL: B18 VL with D92H, N93H
notes: IgG
B22: BIIB-9-622 (antibody, V domains shown)
VH: B18 VH with V35H, V99D, P100G, T101A, Y102T, R103T, Y104V, A108S
VL: B18 VL with D92S, N93T
notes: IgG
B23: BIIB-9-627 (antibody, V domains shown)
VH: QVQLVQSGAEVKKPGASVKVSCKASGYTFTSYYMHWVRQAPGQGLEWMGIINPSGGSTSYAQKFQGRVTMTRDTSTSTVYMELSSLRSEDTAVYYCARADYDYWSGYGGLGMDVWGQGTTVTVSS
VL: not shown
notes: IgG
B24: BIIB-9-592 (antibody, V domains shown)
VH: QLQLQESGPGLVKPSETLSLTCTVSGGSISSNSYYWGWIRQPPGKGLEWIGSIYYSGSTYYNPSLKSRVTISVDTSKNQFSLKLSSVTAADTAVYYCARDSNYDSSGYALYYYGMDVWGQGTTVTVSS
VL: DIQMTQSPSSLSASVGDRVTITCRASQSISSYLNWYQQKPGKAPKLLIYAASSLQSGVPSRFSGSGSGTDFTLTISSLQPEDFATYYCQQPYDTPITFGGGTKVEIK
notes: IgG
B25: BIIB-9-621 (antibody, V domains shown)
VH: QLQLQESGPGLVKPSETLSLTCTVSGGSISSSSYYWGWIRQPPGKGLEWIGSIYYSGSTYYNPSLKSRVTISVDTSKNQFSLKLSSVTAADTAVYYCARDGSISGSRFDYWGQGTLVTVSS
VL: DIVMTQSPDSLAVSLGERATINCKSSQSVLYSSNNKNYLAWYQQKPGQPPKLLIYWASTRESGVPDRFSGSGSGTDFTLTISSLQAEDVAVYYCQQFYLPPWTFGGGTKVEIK
notes: IgG

Positions count from the first letter of the chain named.

Here are results for 25 molecules from patent US20230192896A1 (BIOVERATIV THERAPEUTICS, published 2023).

The target of the assay is T1, FIXa-SM (FIXa+EGR-CMK) (human, UniProt P00740 47-191; P00740 227-461, EGR-CMK (L-Glu-Gly-Arg chloromethyl ketone) covalently bound to the active site).
T1 construct: BLI antigen bought from Haematologic Technologies (HCIXA-EGR); also called FIXa with substrate mimic
The experiment in a line: BLI; class meaning: paragraph 914. For orientation: BLI is a label-free optical method that tracks binding on a fibre tip over time.
In the case of B1, the binding result was “binds”.
For the molecule B2, the binding result was “binds”.
As to B3, the binding result is recorded as “binds”.
For B4 the value was “binds”; for B5, “binds”.
For the molecule B6, the binding result is given as “binds”.
Turning to B7, the binding result was “binds”.
In the case of B8, the binding result is “binds”.
For B9 the value was “binds”; for B10, “binds”.
B11: the binding result was “binds”.
With B12 the entry was “binds”; with B13, “binds”.
Turning to B14, the binding result is reported as “binds”.
For B15, the binding result was “binds”.
With B16, the binding result is “binds”.
With B17 the entry was “binds”; with B18, “binds”; with B19, “binds”.
For B20 the value was “binds”; for B21, “binds”; for B22, “binds”.
With B23 the entry was “binds”.
For the molecule B24, the binding result is on record as “binds”.
With B25 the entry was “binds”.
